Substrate in series [1]: CCCCCCCCCC(=O)Oc1ccc([N+](=O)[O-])cc1
Briefly: purified protein. In kind it is biochemical, Marinactinospora thermotolerans. Particulars: 30°C, 20 mM Tris-HCl pH 8.0.

Substrate in series [2]: CCCC(=O)Oc1ccc([N+](=O)[O-])cc1
Kind of series: purified protein. Type of series: biochemical, Marinactinospora thermotolerans. Particulars: 30°C, 20 mM Tris-HCl pH 8.0.

Substrate in series [3]: CCCCCCCCCCCCCCCCCC(=O)Oc1ccc([N+](=O)[O-])cc1
Briefly: purified protein. Type of series: biochemical, Marinactinospora thermotolerans. Particulars: 30°C, 20 mM Tris-HCl pH 8.0.

Substrate in series [4]: CC(=O)Oc1ccc([N+](=O)[O-])cc1
Kind of series: purified protein. In kind it is biochemical, Marinactinospora thermotolerans. Particulars: 30°C, 20 mM Tris-HCl pH 8.0.

Substrate in series [5]: CCCCCC(=O)Oc1ccc([N+](=O)[O-])cc1
Briefly: purified protein. Particulars: 30°C, 20 mM Tris-HCl pH 8.0. Type of series: biochemical, Marinactinospora thermotolerans.

Substrate in series [6]: CCCCCCCCCCCC(=O)Oc1ccc([N+](=O)[O-])cc1
Kind of series: purified protein. In kind it is biochemical, Marinactinospora thermotolerans. Particulars: 30°C, 20 mM Tris-HCl pH 8.0.

Substrate in series [7]: CCCCCCCC(=O)Oc1ccc([N+](=O)[O-])cc1
Briefly: purified protein. In kind it is biochemical, Marinactinospora thermotolerans. Particulars: 30°C, 20 mM Tris-HCl pH 8.0.

Substrate in series [8]: CCCCCCCCCCCCCCCC(=O)Oc1ccc([N+](=O)[O-])cc1
Briefly: purified protein. Type of series: biochemical, Marinactinospora thermotolerans. Particulars: 30°C, 20 mM Tris-HCl pH 8.0.

Substrate in series [9]: CCCCCCCCCCCCCC(=O)Oc1ccc([N+](=O)[O-])cc1
Briefly: purified protein. Particulars: 30°C, 20 mM Tris-HCl pH 8.0. In kind it is biochemical, Marinactinospora thermotolerans.

Substrate in series [10]: O=C(OCCO)c1ccc(C(=O)OCCO)cc1
Briefly: HPLC substrate reduction, Michaelis-Menten fit. Type of series: biochemical, Marinactinospora thermotolerans. Particulars: 40°C, 20 mM Tris-HCl pH 8.0. From the text: (§1) HPLC substrate reduction, Michaelis-Menten fit on MtCut

Substrate in series [11]: O=C(O)c1ccc(C(=O)OCCO)cc1
Briefly: HPLC substrate reduction, Michaelis-Menten fit. Type of series: biochemical, Marinactinospora thermotolerans. Particulars: 40°C, 20 mM Tris-HCl pH 8.0.
Excerpt: as §1

Substrate in series [12]: O=C(OCCO)c1ccc(C(=O)OCCO)cc1
Briefly: HPLC substrate reduction, Michaelis-Menten fit. Type of series: biochemical, Pseudideonella sakaiensis. Particulars: 40°C, 20 mM Tris-HCl pH 8.0. From the text: (§2) HPLC substrate reduction, Michaelis-Menten fit on IsPETase

Substrate in series [13]: O=C(O)c1ccc(C(=O)OCCO)cc1
Briefly: HPLC substrate reduction, Michaelis-Menten fit. In kind it is biochemical, Pseudideonella sakaiensis. Particulars: 40°C, 20 mM Tris-HCl pH 8.0.
Excerpt: as §2

Substrate in series [14]: O=C(OCCO)c1ccc(C(=O)OCCO)cc1
Briefly: HPLC substrate reduction, Michaelis-Menten fit. In kind it is biochemical, unidentified prokaryotic organism. Particulars: 40°C, 20 mM Tris-HCl pH 8.0. From the text: (§3) HPLC substrate reduction, Michaelis-Menten fit on ICCG

Substrate in series [15]: O=C(O)c1ccc(C(=O)OCCO)cc1
Kind of series: HPLC substrate reduction, Michaelis-Menten fit. Type of series: biochemical, unidentified prokaryotic organism. Particulars: 40°C, 20 mM Tris-HCl pH 8.0.
Excerpt: as §3

B1: MtCut (Marinactinospora thermotolerans DSM 45154) (protein)
chain: NPYERGPAPTESSVTAVRGYFDTDTDTVSSLVSGFGGGTIYYPTDTSEGTFGGVVIAPGYTASQSSMAWMGHRIASQGFVVFTIDTITRYDQPDSRGRQIEAALDYLVEDSDVADRVDGNRLAVMGHSMGGGGTLAAAENRPELRAAIPLTPWHLQKNWSDVEVPTMIIGAENDTVASVRTHSIPFYESLDEDLERAYLELDGASHFAPNISNTVIAKYSISWLKRFVDEDERYEQFLCPPPDTGLFSDFSDYRDSCPHTT
notes: 786 bp fragment, signal peptide removed, C-terminal His6 (pET22b(+), NdeI/XhoI), E. coli BL21(DE3), 34 kDa
In the case of B1, the Km (commonly the concentration of substrate that gives half-maximal velocity) in the series “purified protein [1]” is 4930 ± 530 µM; in the series “purified protein [2]”, 1330 ± 150 µM; in the series “purified protein [3]”, 450 ± 20 µM; in “purified protein [4]”, 550 ± 40 µM; in the series “purified protein [5]” it was 4610 ± 1040 µM; in “purified protein [6]”, 1680 ± 120 µM. Also, the Km in the series “purified protein [7]” was 2550 ± 280 µM; in “purified protein [8]”, 150 ± 10 µM; in “purified protein [9]”, 190 ± 40 µM; in series [10], 3070 ± 930 µM; in [11], 750 ± 110 µM. The kcat (commonly the number of substrate molecules converted per active site and unit of time at saturation) is 69.8 ± 5.15 s⁻¹ in the series “purified protein [1]”; 14.1 ± 1.51 s⁻¹ in the series “purified protein [2]”; 14.3 ± 0.58 s⁻¹ in “purified protein [3]”; 4.47 ± 0.28 s⁻¹ in the series “purified protein [4]”; 41.7 ± 6.35 s⁻¹ in the series “purified protein [5]”; 30.5 ± 3.63 s⁻¹ in “purified protein [6]”. The kcat in “purified protein [7]” was 79.4 ± 8.75 s⁻¹; in “purified protein [8]”, 4.79 ± 0.12 s⁻¹; in the series “purified protein [9]”, 9.87 ± 1.52 s⁻¹; in series [10], 4.27 ± 1.15 s⁻¹; in [11], 0.13 ± 0.01 s⁻¹. The kcat/Km (in general, the turnover number divided by the Michaelis constant) in “purified protein [1]” turned out to be 14200 ± 500 M⁻¹ s⁻¹; in the series “purified protein [2]”, 10600 ± 100 M⁻¹ s⁻¹; in the series “purified protein [3]”, 31800 ± 200 M⁻¹ s⁻¹; in “purified protein [4]”, 8190 ± 340 M⁻¹ s⁻¹; in “purified protein [5]” it was 9230 ± 900 M⁻¹ s⁻¹; in “purified protein [6]”, 18100 ± 1200 M⁻¹ s⁻¹. Besides, the kcat/Km in “purified protein [7]” was 31100 ± 50 M⁻¹ s⁻¹; in the series “purified protein [8]”, 32500 ± 1000 M⁻¹ s⁻¹; in “purified protein [9]”, 51400 ± 2900 M⁻¹ s⁻¹; in series [10], 1410 ± 70 M⁻¹ s⁻¹; in series [11], 176 ± 14 M⁻¹ s⁻¹.

B2: IsPETase (Pseudideonella sakaiensis) (protein)
chain: QTNPYARGPNPTAASLEASAGPFTVRSFTVSRPSGYGAGTVYYPTNAGGTVGAIAIVPGYTARQSSIKWWGPRLASHGFVVITIDTNSTLDQPSSRSSQQMAALRQVASLNGTSSSPIYGKVDTARMGVMGWSMGGGGSLISAANNPSLKAAAPQAPWDSSTNFSSVTVPTLIFACENDSIAPVNSSALPIYDSMSRNAKQFLEINGGSHSCANSGNSNQALIGKKGVAWMKRFMDNDTRYSTFACENPNSTRVSDFRTANCS
notes: purified enzyme; expression construct not described
As for B2, in [12], the Km is 4480 ± 540 µM, the kcat amounted to 5.95 ± 0.62 s⁻¹ and the catalytic efficiency (kcat/Km) came to 1330 ± 20 M⁻¹ s⁻¹. Besides, in series [13], the Km is 720 ± 20 µM, the kcat was 0.0139 ± 0.0006 s⁻¹ and the kcat/Km was 19.2 ± 0.45 M⁻¹ s⁻¹.

B3: ICCG (unidentified prokaryotic organism; D238C/F243I/S283C/Y127G) (protein)
chain: SNPYQRGPNPTRSALTADGPFSVATYTVSRLSVSGFGGGVIYYPTGTSLTFGGIAMSPGYTADASSLAWLGRRLASHGFVVLVINTNSRFDGPDSRASQLSAALNYLRTSSPSAVRARLDANRLAVAGHSMGGGGTLRIAEQNPSLKAAVPLTPWHTDKTFNTSVPVLIVGAEADTVAPVSQHAIPFYQNLPSTTPKVYVELCNASHIAPNSNNAAISVYTISWMKLWVDNDTRYRQFLCNVNDPALCDFRTNNRHCQ
notes: quadruple variant of LCC; only D238C/S283C given, the other two changes (F243I, Y127G) known from Tournier et al. 2020; expression construct not described; PDB 6THT given as the ICCG structure used for modelling
For B3, in series [14], the Km turned out to be 2580 ± 980 µM, the kcat was 2.29 ± 0.95 s⁻¹ and the kcat/Km is 1000 ± 170 M⁻¹ s⁻¹. Also, in series [15], the Michaelis-Menten constant (Km) came to 430 ± 20 µM, the kcat worked out at 0.0032 ± 0.0001 s⁻¹ and the specificity constant (kcat/Km) was 6.75 ± 0.32 M⁻¹ s⁻¹.

(Values after article PMC9086285, “Catalytic Features and Thermal Adaptation Mechanisms of a Deep Sea Bacterial Cutinase-Type Poly(Ethylene Terephthalate) Hydrolase” (Frontiers in Bioengineering and Biotechnology, 2022).)
